Columns and labels:
Fbxl8 [1] = biological target: Fbxl8 (UniProt Q8CIG9); experiment: anti-HA co-IP, blot for cyclin D3; conditions: reference: wild type Flag-cyclin D3; sites T283
Fbxl8 [2] = biological target: Fbxl8 (UniProt Q8CIG9); experiment: co-immunoprecipitation; conditions: reference: wild type cyclin D3; sites T283

Substance: cyclin D3 (from UniProt P30282) Flag-cyclin D3 T283A
- binding against the reference (Fbxl8 [1]): weaker

Substance: cyclin D3 (from UniProt P30282) T283A
- binding against the reference (Fbxl8 [2]): lost
